Test results from the DeepSol protein solubility set.

Assay: soluble on expression in E. coli; label from the status in PepcDB or PDB records

Soluble on expression in E. coli, not soluble:
MGSDKIHHHHHHMIKNTIKKLIEHSIYTTFKLLSKLPNKNLIYFESFHGKQYSDNPKALYEYLTEHSDAQLIWGVKKGYEHIFQQYNVPYVTKFSMKWFLAMPRAKAWMINTRTPDWLYKSPRTTYLQTWHGTPLKKIGLDISNVKMLGTNTQNYQDGFKKESQRWDYLVSPNPYSTSIFQHAFHVSRDKILETGYPRNDKLSHKRNDTEYINGIKTRLNIPLDKKVIMYAPTWRDDEAIREGSYQFNVNFDIEALRQALDDDYVILLRMHYLVVTRIDEHDDFVKDVSDYEDISDLYLISDALVTDYSSVMFDFGVLKRPQIFYAYDLDKYGDELRGFYMDYKKELPGPIVENQTALIDALKQIDETANEYIEARTVFYQKFCSLEDGQASQRICQTIFK, MGSDKIHHHHHHMIKVEIDEGSGFCFGVVTAIHKAEEELAKGETLYCLGDIVHNSREVERLKAMGLITINRDEFRQLRNAKVLLRAHGEPPETYQIAHKNNIEIIDATCPVVLRLQKRIKQEFRKEDFEEKQIVIYGKNGHAEVLGLVGQTGGQAIVIESAEEAKKLDFTKSIRLFSQTTKSLDEFQEIVEYIKLHISPDATFEYYDTICRQVANRMPNLREFAATHDLIFFVSGKKSSNGKMLFEECLKVNANSHLIDNEKEIDPTLLRNVKSIGVCGATSTPKWLMEKIHDHIQLLIKD, MGSDKIHHHHHHMILNIDVNLAYSIEQPVDLILQIQAPSFADQHVVSETFDLGNPEHVGRIAGEAGMGDRVLLSTATDFRFSYTAQIDVNRPALALEQLKAVAPHLLPGDAVRYLMPSRYCQSDELQSFVAAEFGHLSGGARIVAMRDWINQRYQYVPGSSTAQTTAIDTFVQRQGVCRDFAHVLIALARASAIPARFVSVYAPHVTPQDFHAVAEVFLDGTWHLVDATGMADASDIARIGVGMDAAEVAFLSSFGPMTMDTQTVSVSIAGS, MGSDKIHHHHHHMINAPKTCTCYNGCVGGPSRPAGHPRRRTDKPRWRWTFDSGRRTPSVRIRQLVRGTVPWESLEAVARELGARYDQDTVRVVFLDADNWLSTPCVVNDRWFVKVISEQNALVHAVFTGARNLGMFSSGTEGFFERFDGPVAMAEHERDATRDLRALGVNAPRPIEAFEVDGFGVLVLDYLPAFTPLDEVPAADVAAHAPAVFEALSTMHANGVAHGDLRAENVLVSDGDLYFIDATNVDTDAIADARAYDLACALAALEPLIDAQTVVRIARESYTVDEAAADVSTTMDALLRAQDFLGFVQLRPDHDFDTAALTGHIGMAATNAQRGL, MGSDKIHHHHHHMINLNGNSSSSRQVTFITHPSIQSKAFASYLSETLMAPVVLQNINKPLAQRLAKDSVILFDIAVSNKKLNGVWRDIIRLQADNPRLLIINSAQKYELYEMAQWPALYGVFRHDDDESRLIEGVKAVLNGEQTAELSVMHPAMYAADHASTPVENSPLTERECEILNELRCGATNLDIARALFISENTVRTHLYNVFRKLSVKNRTQAVSWANEHLRH, MGSDKIHHHHHHMINNEKYKELIKYLKSLGKVVLAFSGGVDSTFLLKASKEALGDNVKAVTILSPYIPKWEIREAEELVKELGVEHEIIKAPIIDSIKFNPEDRCYLCKTAVFSMILDAAKRQGYDCVIDGTNFDDIKDYRPGLRALKELSVKSPLLECKLTKAEIRTFSKELGLKTWDKPPYACLLTRIPYGNELKVEDFEKIERAERYMMSIGFRAIRVRCHDDLARIEVAREDRSKLFNEELLDTISENIKKCGFKYVSLDLQGYRVGSFNETIAKISDK, MGSDKIHHHHHHMINQDIARIFTEIAYLLEAAGEQKSQFEANAYLKASRAISSMQEDLETIYEKGGKDALLSIPGIGKGIADKIVEYINSGSIQKYEDLKKKYPIDFISLMKIEGLGPKKLAVLYQALGITNVEELRNAILNHKVRGIPGFGEKSENQLLKNIEMAERVSERIPIWKAYPEALRIKNYLESTGYALIVEIAGSTRRMKETIGDIDILAASEYPNALMDKFVEMDGVSSIIAKGDKKSTVSLKIGTTCDLRIVSKESFGAAMQYFTGSKDHNIKLRRLAIGKGMKLNEYGLFSGDKNIVSGMPEEKVYETLDLAYIPPELREDRGEIEAAAQKRLPEIVQYGEVKGDMFSKMDVSNIKNITGISYVFVDSGDGPLTDLYMYTFDGGRAVKTGASIKALDCSKLNAVSELKSASGVIMLYNIDSLGLPESAAVQNLIEKLSKSGIIVLINSSDVRPTSDFLYSLRKYDFKVAIGSFSDEPSLEGSMRFGIGITRRAWIEKNRIINTLDANALMSYLKNSQ, MGSDKIHHHHHHMIRGLYIAVSAMITNQQKQNVVVNNLANMDTNGYKSKQLLTKSFDELKLEGYNNYANGTKQKQIIGDISPGISMDETITNFNQGPIKTTDNKMDVAIQGKGFFLVSDAAGNQFYTRNGNFRTDNQGDLITSEGYYVLGTNTATGAVGHINVGNQKFEVAKDNTISLDGNAMYKFNIVDFNNYNNLKKEGDNLYSGGGAMKVNNALTIQSAIESSNVDMVSEINNMMTISREYEANQKIIQAMDSKLAKIASEIGSVR, MGSDKIHHHHHHMIRINMFSQADSVAGQGVGAAYLELIRLLRTHLVDDFYVTINKYGRSDLTHYHTINPTYFANSFSPARGRKIGYVHFLPDTLERSIKLPGVAKKVFYQYVIDFYKRMDQIVVVNPIFIDKLTEYGLDRNKIRYIPNFVAKSEFYEQTQAKKNATRQELGIPQDKFVVFGDGQVQARKGVDDFAKLAEANPDYQFIWAGGFSFGKITDGYDHFKQLVENPPKNLTFTGIIDREKLVDYLNMADLFLLPSFDELFPMSVLEAFSCGTPVLLRDLDLYRAIIDGYYLAGKDSAEMNEQLRFAATHPEVLARQQELSRKASQQYSEDHLAEIWRDFYQEQYQLGRELGQISYE, MGSDKIHHHHHHMIRLLFASLLAASPIHAQGFAGLGTVADGFAVPAPNPTFSFPDDHGPHPDYRIEWWYLTATLTGADGIDYGIQWTLFRSALAPTTSTDWTAPQIFMGHAGLTTPDAHFSAERLARGGIGQAGVTPVPFRAFIDDWEMTSTTAEGDAYDALSLTARGVDFAYDLALQANGPLIFHGQNGFSVKSAEGQASYYYSQPFYTVTGTLTLPTGAVEVSGNAWLDREWSSQPLSDDQSGWDWFSLQLPDGARLMAFALRDTSDQPFTSATYIAPDGTTQAYGDGAITLTPLVTTDVGGRDVPTEWRLQFPDRGIDITTQPLNPQSWMDTSFPYWEGPITFTGTHDGRGYLEMTGYE, MGSDKIHHHHHHMISTANLTIQFGPKPLFENVSVKFGEGNRYGLIGANGSGKSTFMKIIGGDLEPSAGNVSLEPGVRLGKLRQDQFAFEEVRVLDVVMMGHTEMWAAMSERDAIYANPEATEDDYMRAADLEAKFAEYDGYTAEARAGELLLGLEIAVDQHNLLMREIAPGWKLRVLLAQALFSNPDVLLLDEPTNNLDINTIRWLENVLNGYQSTMIIISHDRHFLNQVCTHMADVDYGEIRVYPGNYDDYMLASTQARERLTANNAKAKERIVELQDFVRRFAANKSKSRQATSRLKQIDRIKADQVEVKPSSRQNPYIRFEQNKVMHRLAVTIEKLSKSYDQPVIRDFSAMVDAGEKVAIIGANGVGKTTLLRMLATDLAPDSGTVKWSENADIGYMAQDVSDQFQQGDINLFDWMAEHRQPGDDDQSIRSALGRLLFSGDDLPKAPKVLSGGEKNRMTFGRLMLGRHNVMLLDEPTNHLDMESIESLQFALEKYEGALIFVSHDREFVSGLATRIIEILPDGELVDYRGGYEDYLASRGIEA, MGSDKIHHHHHHMITEELEVGYNVPATVGMDEADIQTPCLILDLDALERNVKKMGDYAKAHNMRHRSHGKMHKSVDVQNLQEELGGAIGVCCQKVSEAEVFVRGGIKDVLVSNQVRNPAKIERLANLPKLGSTITVCVDDIDNVAELSAAATKAGTELNCYIEIDCGAGRCGVTTTEAVVEIAKAIDAAENLKFTGIQAYQGAMQHMDSFSDRKAKTQIAIDQVQEAIDALTEIGLKPEFVSGGGTGSYYFESNSGVFNELQCGSYAFMDADYGRILDEDGNRIDAGEWENALFILTSVMSHAKADKAIVDAGLKAQSVDSGLPFVYGRDDVEYVKCSDEHGVVSDPNGVLEINEKLKLVPGHCDPTCNVHDFYIGVRNGKVETVWPVSARGKMY
